For one substance, Km and Vmax results are on record in publication PMC11410943.

The data set deals with Cn1c(=O)ccc2ccc(F)c(CCNC[C@H]3CN(c4cnc5c(n4)NC(=O)CO5)C(=O)O3)c21. Kind of data set: MATE2-K transport in HEK293 cells. It counts as in vitro ADME, human. The conditions noted are these: other: HEK293 cells; 37.0 °C.

As a reminder, the Km is the concentration of substrate that gives half-maximal velocity. As usually defined, the Vmax is the top rate of the reaction or transport when substrate is in excess. For the substance MATE2-K (Homo sapiens), the Km turned out to be 469 µM and the Vmax is given as 111 pmol/mg/min.
